Positions count from the first letter of the chain named. Names and notes keep the numbering of the source. “Also recorded” adds a separate entry of the source.
Assays:
[1] = target: 2-Pyrone synthase (2-PS) from Gerbera hybrida (Gerbera hybrida); test: X-ray crystal structure, homodimer interface
CHS = details: cited from earlier work
[2] = Malonyl-CoA decarboxylation by C164S mutant (crystallographic and functional assay); format: biochemical
From the text: Asn336 appears to play a crucial role in the decarboxylation reaction. […] In the hexanoyl-CoA complex, the side chain amide of Asn336 provides a hydrogen bond to the carbonyl oxygen of the thioester. This interaction would stabilize the enolate anion resulting from decarboxylation of malonyl-CoA (see FIG. 6). At the same time, the lack of formal positive charge at Asn336 may preserve the partial carbanion character of this resonance-stabilized anion, and thus the nucleophilicity of the carbanion form.

[3] = 14C malonyl-CoA assay of CHS mutants, products analysed by TLC and autoradiography (naringenin vs resveratrol); format: biochemical; details: TLC autoradiography
From the text: Wild type CHS produces chalcone, which spontaneously converts to naringenin, the position of which is indicated by the arrow on the left. Wild type STS produces resveratrol, the position of which is indicated by the arrow of the right. Function conversion of CHS to STS (i.e., the production of the alternate product from the same intermediate) results in diminished production of naringenin and increased production of resveratrol. Various mutants of CHS produce varying degrees of resveratrol, showing that CHS activity can be altered to STS-like activity to different extents by different mutations.
Mutant CHS (SEQ ID NO: 1) has altered activity based on assays conducted with ^14C malonyl-CoA. Products were extracted with ethyl acetate and analyzed by silica gel thin layer chromatography (TLC) and visualized by autoradiography.

[4] = Activity and kinetics of 18xCHS / 8xCHS compared with wild type CHS and STS; format: biochemical; details: listed as 8×CHS

Q: Which surface area buried per monomer by the dimerization surface [1] does the source give for “2-Pyrone synthase (2-PS) from Gerbera hybrida (enzyme)” here?
A: 1800 Å^2

Q: For `C/C=C/C/C=C/CCC(=O)[C@H]1O[C@H]1C(N)=O` [Cerulenin], which “inhibition of CHS” value (CHS) is on record?
A: potent irreversible inhibitor of CHS

Q: And the “inactivation of CHS after preincubation with substrate” value (CHS; preincubation with coumaroyl-CoA or malonyl-CoA)?
A: Preincubation of CHS with coumaroyl-CoA prevents inactivation by cerulenin, but pre-incubation with malonyl-CoA does not

B1: C164S: alfalfa CHS C164S mutant (protein, listed as Medicago sativa)
chain: MVSVSEIRKAQRAEGPATILAIGTANPANCVEQSTYPDFYFKITNSEHKTELKEKFQRMCDKSMIKRRYMYLTEEILKENPNVCEYMAPSLDARQDMVVVEVPRLGKEAAVKAIKEWGQPKSKITHLIVCTTSGVDMPGADYQLTKLLGLRPYVKRYMMYQQGSFAGGTVLRLAKDLAENNKGARVLVVCSEVTAVTFRGPSDTHLDSLVGQALFGDGAAALIVGSDPVPEIEKPIFEMVWTAQTIAPDSEGAIDGHLREAGLTFHLLKDVPGIVSKNITKALVEAFEPLGISDYNSIFWIAHPGGPAILDQVEQKLALKPEKMNATREVLSEYGNMSSACVLFILDEMRKKSTQNGLKTTGEGLEWGVLFGFGPGLTIETVVLRSVAI
Q: With B1 as the molecule, how does the “catalytic / decarboxylation activity on malonyl-CoA” value [2] read?
A: retains decarboxylation activity; also recorded: retains limited catalytic activity; also recorded: produces acetyl-CoA

B2: 16B: alfalfa CHS mutant: V98L, T131S, S133T, G134T, V135P, M137L, M158G, Y160F (protein, UniProt P30074 1-389, looked up, variant V98L T131S S133T G134T V135P M137L M158G Y160F)
Chalcone synthase 2: B1 chain with V98L, T131S, S133T, G134T, V135P, M137L, M158G, Y160F, S164C
Q: Which results are given for B2?
A: naringenin amount [3]: reduced amounts of naringenin compared to wild type CHS; resveratrol amount [3]: various amounts of resveratrol; activity and kinetics compared with STS [4]: activity that is similar to the 18×CHS mutant

B3: 4B: alfalfa CHS mutant: A1 (four), A2 (five), A3 (M158G, Y160F), A4 (K269G) (protein, UniProt P30074 1-389, looked up, variant D96A V98L V99A V100M T131S S133T G134T V135P M137L M158G Y160F K269G)
Chalcone synthase 2: MVSVSEIRKAQRAEGPATILAIGTANPANCVEQSTYPDFYFKITNSEHKTELKEKFQRMCDKSMIKRRYMYLTEEILKENPNVCEYMAPSLDARQAMLAMEVPRLGKEAAVKAIKEWGQPKSKITHLIVCSTTTPDLPGADYQLTKLLGLRPYVKRYGMFQQGCFAGGTVLRLAKDLAENNKGARVLVVCSEVTAVTFRGPSDTHLDSLVGQALFGDGAAALIVGSDPVPEIEKPIFEMVWTAQTIAPDSEGAIDGHLREAGLTFHLLGDVPGIVSKNITKALVEAFEPLGISDYNSIFWIAHPGGPAILDQVEQKLALKPEKMNATREVLSEYGNMSSACVLFILDEMRKKSTQNGLKTTGEGLEWGVLFGFGPGLTIETVVLRSVAI
Q: Which results are given for B3?
A: naringenin amount [3]: reduced amounts of naringenin compared to wild type CHS; resveratrol amount [3]: various amounts of resveratrol

B4: A4: alfalfa CHS mutant: A4 (L268K, K269G, D270A, G273D) (protein, UniProt P30074 1-389, looked up, variant L268K K269G D270A G273D)
Chalcone synthase 2: B1 chain with S164C, L268K, K269G, D270A, G273D
Q: For B4, which “product profile (naringenin or chalcone versus resveratrol), cyclization specificity” value [3] is on record?
A: no effect on cyclization specificity
